Source: the nanobody polyreactivity screen of Harvey et al. (2022)

Assay: yeast display, Sf9 membrane polyspecificity reagent, FACS + sequencing; frameworks hold sequencing errors
How it was run: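 A nanobody's polyreactivity label depends on the gate it was sorted from. Yeast display cells were stained with 10% biotinylated, detergent-solubilized Sf9 membrane reagent for 1 hour at 4 °C, enriched on streptavidin microbeads and sorted by FACS. The low and high (top ~1%) gates were set on anti-HA fluorescence for expression and streptavidin fluorescence for reagent binding.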

Row | Sequence | polyreactivity (PSR sort gate)
1 | HVQLVESGGGLVQAGGSLRLSCAASGSIFILYAMGWSRQAPGKERELLASISSSGGRTYYADSVKGRFTISRDNAKNTVYLQMNSLKPEDTAVYYCNAVGRYWSYGTIYDYWGHGTQVTVSS | high polyreactivity
2 | HVQLVESGGGLVQAGGSLRLSCAASGSIFVPYTMGWSRQAPGKERELVAAINSSDDSKFYADSVKGRFTISRDNAKNPVYLQMNSLKPEDTAVYYCAASYYYTIGPYFRKFDWGQGTQVTVSS | low polyreactivity
3 | HVQLVESGGGLVQAGGSLRLSCAASGSIFVSYGMGWYRQAPGKEWELVASISNSAGSTYYADSVKGRFTISRDNAQNTVYLQMNSLKPDDTAVYSCAADYWVWAYGGYDAYNYWGQGTQVTVSS | high polyreactivity
4 | HVQLVESGGGLVQAGGSLRLSCAASGSILDGKALGWYRQAPGKERERVAGISESDGSTNYADSVKGRFTISRDNAKNTVYLQMNSLKPEDTAVSYCAADIWTSGDIPYDYWGQGTQVTVSS | low polyreactivity
5 | HVQLVESGGGLVQAGGSLRLSCAASGSTFSYYAMGWYRQAPGKERELVAAITSGGRTKYADSVKGRFTISRDNAKNTVYLQMNSLKPEDTAVYYCAKRIEKFSGSLAGRWYDYWGQGTQVTVSS | high polyreactivity
6 | HVQLVESGGGLVQAGGSLRLSCAASGSTFTVNAMGWYRQAPGKERELVAAISASGGRTYYADSVKGRFTISRDNAKNTVYLQMNSLKPEDTAVYYCAARFRTWGNREAGYYWGQGTQVTVSS | high polyreactivity
7 | HVQLVESGGGLVQAGGSLRLSCAASGSTFYNYAMGWYRQAPGNERELVAGISSGVTTNYADSVKGRYTISRDNAKNTVYLQMNSLKPEDTAVYYCAAVHSWYARYLGGEDYDYWGQGTQVTVSS | low polyreactivity
8 | HVQLVESGGGLVQAGGSLRLSCAASGYTFWDYAMGWYRQAPGKEREFVAGISFSDGGTYYADSVKGRFTISRDNAKNTVYLQMNSLKPEDTAVYYCAATYPYSWVYSGYYYWGQGTQVTVSS | low polyreactivity
9 | HVQLVESGGGLVQAGGSLRLSCAASVITFVPYAMGWYRQATGKERELVAAISWSGGSTYYADSVKGRFTISRDNAKNTVYLQMNSLKPEDTAVYYCAAQHDVRYDYWGQGTQVTVSS | low polyreactivity
10 | HVQLVESGGGLVQAGGSLRLSCASSGSIFWANAMGWYRQAPGKERELVATITSGGRTYYADSVKGRFTISRDNAKNTVYLQMNSLKPEDTAVYYCARVPPQYRWGRRLVYVHVDYWGQGTQVTVSS | low polyreactivity
11 | HVQLVESGGGLVQAGGSLRVSCAASGRTFWSYTMGWYRQAPGKERELVASITYRGGSTYYADSVKGRFTISRDNAKNTVYLQMNSQKPEDTAVYYCNARYKRYSYDYWGQGTQVTVTS | high polyreactivity
12 | HVQLVESGGGLVQAGGSRLLSCAASGFTIYANAMGWYSQAPGKERELVAAITWRGGSTYYADSVKVRFTISRDNAKNTVYLQMNSLKPADTAVYYCNALKGRPVRSYLASPSYRYEYWGQGTQVTVSS | high polyreactivity
13 | HVQLVESGGRLVQAGGSLRLSCAASGIIFGYYAMGWYRQAPGNERELVAAIDWTGGNTYYADSVKGRFRISRDIAKNTVYLQMNSLKPEDTAVYYCAADYYSQEDYWGQGTQVTVSS | low polyreactivity
14 | HVQLVESGGRLVQAGGSLRLSCAASGSIFVPNAMGWYRQAPGKERELVATISWSGGSTYADCVKGRFTISRDNAKNTVYLQMKSLKPEDTAVYYCNARRYDPGSRYDYWGQGTQVTVSS | low polyreactivity
15 | HVQPQESGGGLVQAGGSLRLSCAASGTISADYKMGWYRQAPGKEREFVAANAFGAFTNYADSVKGRFTISRDIAKNTVYLQMNSLKPEDTAVYYCAADLYYYAYDYWGQGTQVTVSS | high polyreactivity
16 | KCQLVDSGGGLVQAGGSLRLSCAASGSIFYVKAMGWYRQAPGKEREFVADITYTGGSTYYADSVNGRFTISRDNAKNTVYLQMNSLKPEDTAVYYCAADLYTTYVAIYDYWGQGTQVTVSS | low polyreactivity
17 | KVQLGVSGGGLVQAGGSLRLSCASSGFIFRYYAMGWSRQAPGKERELVAGISSGGSTYYADSVKGRFTISRDNAKNTVYLKMNSLKPEDTAVYYCNAVYSSGVDGSEGFDYWGQGTQVTVSS | low polyreactivity
18 | KVQLLYSAGGLVHAGGSLRLSCAASGNIFRSYAMGWYRQAPGKERELVAAISSRGGSTYYADTVKVRFTISRDNAMNTVYLQMNSLKPEDTAVYYCNAPSTQQGPKYDYWGQGTQVTVSS | low polyreactivity
19 | KVQLQESDGALVQAGGSLRLSCAASGSISPQYYMGWYRQAPGKEREFVAISKGTTTYYADSVKGRLTISRVNAKNTVYLQMNSLKPEDTAVYCCAAGRWLQKVPAYWDQGTQVTVSS | low polyreactivity
20 | KVQLVESGGGLVQAGGRLRLSCAASGGTFVINVMGWYRQAPGKERELVAAISWNGDSTYYADSVKGRFTISRDNAKNTVYLQMNSLKPEDTAVYYCATDTWRVYYAYWQFGVWELGYWGQGTQVTVSS | low polyreactivity
21 | KVQLVESGGGLVQAGGSLRFSCAPSGSIFSGNTMGWYRQAPGKEREMVAAITRSGDTTYYADSVKGRFTISRDYAKNTVYLQMNSLKPEDTAFYYCAAALPRYRSRAIRVEFWGQGSQVTVSS | high polyreactivity
22 | KVQLVESGGGLVQAGGSLRISCAASGRICWGYVMGWYRQAPGKERELVAAISSGGDTHYADSVKGRFTISRDNAKNTVYLQMNSLKPEDTGVYYCAARPNFTPYEYGYWGQGTQVTVSS | low polyreactivity
23 | KVQLVESGGGLVQAGGSLRISCAASGSTLYRYAMGWYRQAPGKERELVAAISSSGGSTYYADSVKGRFTISRDNAKNTVYLQMNSLKPEDTAVYYCARVAPASGVRWYYYWGQGTQVTVSS | high polyreactivity
24 | KVQLVESGGGLVQAGGSLRLSCAASGFTFRSYAMGWYRQAPGKERDFVAAITINGGSTYYADSVKGRFTISRDNAKNTVYLQMNSLKPEDTAVYYCAAGTLYRIRGYPLWQYDYWGQGTQVTVSS | high polyreactivity
25 | KVQLVESGGGLVQAGGSLRLSCAASGGTFYRYAMGWYRQAPGKERELVAAITSGSSTYYADSVKGRFTISRDNAKNTVYLQMNSLKPEDTAVYYCAAARYSRLSRTRPGKYGYWGQGTQVTVSS | low polyreactivity
26 | KVQLVESGGGLVQAGGSLRLSCAASGNIFIPYAMGWYRQAPGKEREFVAVISTRGGSTYYADSLKGRFTISRDNAKNTVYLQMNSLKPEYTAVYYCAAGALGPRIKGWWFRRSFFYWGQGTQVTVSS | high polyreactivity
27 | KVQLVESGGGLVQAGGSLRLSCAASGRIFVGYAMGWYRQAPGKERELVAAINRSGSSTYYADSVKGRFTISRYNAKNTVYLQMNSLKPEDTAVYYCNARSGKRYGPRYDYWGQGTQVNVSS | high polyreactivity
28 | KVQLVESGGGLVQAGGSLRLSCAASGSIFPSYVMGWYRQAPGKERELVAAITKSTGTTYYADSVKGRFTISRDNAKNTVYLQMNSLKPEDTAVYYCNAPYWFSPGYGGFEFGYDYWGQGTQVTVSS | low polyreactivity
29 | KVQLVESGGGLVQAGGSLRLSCAASGSIISGNAMGWYRQAPGKERELVAAISRSGGRTYYADSVKGRFTISRDNAKNTVYLQMNSLKPEDTAVYFCAAGRSLRGDYWGQGTQVTVSS | high polyreactivity
30 | KVQLVESGGGLVQAGGSLRLSCAASGSISANYAMGWYRQAPGKERELVAAISRRGASTYYADSVKGRFTISRDNAKNTVYLQMNSLKPEDTAVYYCNAKKYHVPGVDYWGQGTQVTVSS | high polyreactivity
